Bounds are passed on as bounds.

We go through four substances from US20240318135A1.

Test [1] concerns the target MART-1 peptide on HLA-A*02:01 (human). In words: NFAT-eGFP in TnT-TCR cells after overnight co-culture with peptide-pulsed T2 cells, FIG. 8C; full-length, on cells.
Test [2] deals with HLA-A*0201-… MHC dextramer (human). In words: flow cytometry of TnT-TCR cells stained with fluorescently-labelled pMHC dextramer and anti-CD3.
Test [3] has the same target. The experiment in a line: flow cytometry, serial dilutions of the target pMHC dextramer on TnT-TCR cells, pMHC-dex+ cells (% of max), three-parameter fit, n=3; the concentration is that of the dextramer.
For test [4], the target named is NY-ESO-1 peptide … presented by HLA*A0201 on T2 cells (human).
In test [5] the target is MART-1 peptide … presented by HLA*A0201 on T2 cells (human).
The target is the same in test [6]. The experiment in a line: cell-based or functional assay.
Test [7] has as its target HLA-A*0201-… MHC dextramer (human). The experiment in a line: flow cytometry, serial dilutions of pMHC dextramer on TnT-TCR cells; EC50 of normalized dextramer saturation curves.

As for DMF5, the difference of peptide EC50 between DMF4 and DMF5 in test [1] was below 2 fold.
As a reminder, the EC50 is the concentration at which the effect is half-maximal. Read a low EC50 as greater potency. The substance TCR 1G4 showed a Q2 (percent of cells CD3+ and [..] pMHC dex+) (% (unit not given)) in test [2] of 96.1. Also, in test [3], the EC50 was determined as 0.0568 nM. In test [4], the EC50 (peptide concentration for half-maximal GFP+ cells, NFAT-GFP reporter) turned out to be 167 nM.
Take TCR DMF4: in test [2], the Q2 (percent of cells CD3+ and [..] pMHC dex+) (% (unit not given)) stood at 48. Also, the EC50 in test [3] came to 0.267 nM. This substance also yielded an EC50 (peptide concentration for half-maximal GFP+ cells, NFAT-GFP reporter) in test [5] of 14.2 nM.
Substance TCR DMF5 yielded a Q2 (percent of cells CD3+ and [..] pMHC dex+) (% (unit not given)) in test [2] of 99.1. Also, the fold difference in functional EC50 between DMF4 and DMF5 in test [6] is below 2 fold. The substance further showed a concentration for a half-maximal effect (EC50) in test [3] of 0.00692 nM. This substance also returned an EC50 (peptide concentration for half-maximal GFP+ cells, NFAT-GFP reporter) in test [5] of 8.13 nM. In test [7], the fold lower EC50 than DMF4 stood at 39 fold.
